Measurements: PMC2841545 (Protein Engineering, Design and Selection, 2010)
Where a chain is given by its changes, count along the chain named. Each block holds one binder with its values, some of them ahead of it.

Target: ABL1 SH2 domain (Homo sapiens (clone BC059260 maps to …, UniProt P00519))
Test: ELISA

Chain of ABL1 SH2 domain (Homo sapiens (P00519 whole entry, looked up, the tested form may be a part): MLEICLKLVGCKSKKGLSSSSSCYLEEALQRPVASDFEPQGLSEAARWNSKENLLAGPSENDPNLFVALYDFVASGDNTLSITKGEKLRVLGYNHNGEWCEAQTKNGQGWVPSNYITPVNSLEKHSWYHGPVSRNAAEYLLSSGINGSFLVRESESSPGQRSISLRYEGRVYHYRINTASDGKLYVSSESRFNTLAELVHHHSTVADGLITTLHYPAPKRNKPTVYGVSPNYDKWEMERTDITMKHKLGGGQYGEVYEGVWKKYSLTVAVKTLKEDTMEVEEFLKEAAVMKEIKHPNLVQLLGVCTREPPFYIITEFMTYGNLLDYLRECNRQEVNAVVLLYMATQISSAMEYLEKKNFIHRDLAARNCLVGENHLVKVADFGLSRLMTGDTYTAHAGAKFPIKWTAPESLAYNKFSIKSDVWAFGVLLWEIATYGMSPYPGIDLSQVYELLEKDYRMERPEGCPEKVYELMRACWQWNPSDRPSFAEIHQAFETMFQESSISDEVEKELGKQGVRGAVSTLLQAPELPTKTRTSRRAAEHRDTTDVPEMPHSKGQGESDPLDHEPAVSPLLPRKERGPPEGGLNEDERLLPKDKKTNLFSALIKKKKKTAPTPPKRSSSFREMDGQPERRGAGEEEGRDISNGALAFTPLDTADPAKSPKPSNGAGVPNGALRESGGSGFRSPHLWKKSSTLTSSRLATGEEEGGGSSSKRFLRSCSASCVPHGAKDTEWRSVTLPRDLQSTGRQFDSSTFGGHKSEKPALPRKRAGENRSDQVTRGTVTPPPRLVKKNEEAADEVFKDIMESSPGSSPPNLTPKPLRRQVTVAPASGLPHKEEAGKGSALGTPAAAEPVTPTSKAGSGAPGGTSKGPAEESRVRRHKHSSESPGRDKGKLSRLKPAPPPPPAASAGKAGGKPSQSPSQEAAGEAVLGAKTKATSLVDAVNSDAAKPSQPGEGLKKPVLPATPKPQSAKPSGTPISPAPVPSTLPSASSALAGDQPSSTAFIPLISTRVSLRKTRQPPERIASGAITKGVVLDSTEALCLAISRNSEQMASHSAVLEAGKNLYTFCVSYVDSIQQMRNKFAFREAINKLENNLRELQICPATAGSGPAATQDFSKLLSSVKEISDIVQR

binding result: binds
B1: scFv 43H02 (Group ai, selected on ABL1) (scFv, V domains shown)
VH: EVQLLESGGGLVKPGGSLRLSCAASGFTFDDYAMHWVRQAPGKGLEWVSGISWNSGSIGYADSVKGRFTISRDNAKNSLYLQMNSLRAEDTALYYCAKGGPGIRYPDAFDIWGQGTLVTVSS
VL: not shown

binding result: binds
B2: scFv 43_E02 (Group aiii, selected on ABL1) (scFv, V domains shown)
VH: B1 VH with K13Q, G16R, L117M
VL: DIQMTQSPSSLSASVGDRVTITCRASQSIRNDLGWYQQKPGKAPKLLIYAASSLQSGVPSRFSGSGSGTDFTLTISSLQPEDFATYYCQQSSSTPITFGGGTKVEIK
